# Data taken from US7951775B2, “Methods and pharmaceutical compositions for GnRH-I and GnRH-II modulation of T-cell activity, adhesion, migration and extravasation” (priority 2001, dated 2011).
# Entries after “also recorded” stand apart in the source; their conditions may differ.
# Tests used:
# normal human T-cells [1] = test: In-vitro chemotactic migration assay towards SDF-1 through laminin-coated filters; format: cell-based; conditions: 10 nM, at least 18 h pretreatment; four independent experiments
# Protocol: Normal human T-cells (1×10^6 cells/well in rest medium) were pretreated with GnRH-I or GnRH-II (10 nM, >18 hours, 37° C., 7.5% CO2 humidified incubator), washed, resuspended in adhesion medium and fluorescently labeled (50 μg/ml, 30 minutes, 37° C., 7.5% CO2 humidified incubator) with 2′,7′-bis-(2-carboxyethyl)-5-(and-6)-carboxyfluorescein acetoxymethyl (BCECF AM, Molecular Probes, Eugene, Oreg.). The cells were then washed, resuspended in adhesion medium, and added to the upper chambers (2×10^5 cells per 100 μl well) of a 24-well chemotaxis microchamber plate (Corning Inc., Corning, N.Y.). The two compartments of the microchambers were separated by polycarbonate filters ([…] pore size) pre-coated with laminin ([…], about 1.5 hour, 37° C.). […]
# Adhesion of T-cells to components of the basement membrane is a crucial step in the series of events that eventually enable T-cells to migrate and extravasate from the blood stream to specific tissues. […] To determine whether GnRH can induce T-cells to migrate towards a chemoattractant, we made use of the Boyden chamber migration assay and scored the number of fluorescence-labeled normal human T-cells which migrated from a medium-containing upper chamber to a chemoattractant-containing lower chamber. […]
# normal human T-cells [2] = test: Double immunofluorescence staining (FACS) for surface 67 kDa laminin receptor and TCR; format: cell-based; conditions: for 67 kDa LR and TCR positive (double positive) cell population: 10 nM, 48 hours, 37° C., untreated 35.7%; for surface expression of the 67 kDa LR, in words: vs untreated normal human T-cells
# Protocol: Normal human T-cells, isolated from fresh peripheral blood lymphocytes, or EL-4 T-lymphocyte cells were subjected to double immunofluorescence staining, using a mouse monoclonal anti-67 kDa LR antibody (100 μl of 1:20 dilution per 1×10^6 cells/tube; 30 minutes on ice), or normal mouse sera for control. The cells were then stained with an FITC-conjugated goat anti-mouse IgG (100 μl of 1:100 dilution), and PE-conjugated mouse anti-human TCR αβ mAb (2 μl of stock). Cells that were stained only with the second and third antibodies served as additional negative controls. Fluorescence profiles were recorded in a FACSORT. To determine whether GnRH-II and GnRH-I trigger not only the gene transcription but also the surface expression of the 67 kDa LR, normal human T-cells were treated with either GnRH-II or GnRH-I for 18-66 h and subjected to double immunofluorescence staining using a monoclonal antibody (mAb) that is specific for the 67 kDa LR, and a phycoerythrin (PE)-conjugated anti-TCRαβ mAb (to confirm the T-cell origin of the cells). FIGS. 2A-2C show the staining for the untreated, GnRH-I treated and GnRH-II treated T-cells, respectively. The FACS profiles can be interpreted by division according to four categories: 1. Negative staining for both mAbs (double negative, lower left quadrant); 2. Single positive staining only with the anti-LR mAb (lower right quadrant), 3. Single positive staining only with the anti-TCR mAb (upper left quadrant); 4. Double positive staining with both mAbs (upper right quadrant). […] In different experiments, each using freshly isolated T-cells from a different human donor, both GnRH II and GnRH I repeatedly elevated the laminin receptor expression level, but the magnitude of elevation varied within a range of 6-40%. Such variations between T-cell populations originating from different donors are often observed in respect to various T-cell features and functions.
# EL-4 T-lymphoma cells = test: Double immunofluorescence staining for 67 kDa LR and TCRαβ on EL-4 cells; format: cell-based, mouse; conditions: 10 nM, vs untreated EL-4 cells
# Protocol: Normal human T-cells, isolated from fresh peripheral blood lymphocytes, or EL-4 T-lymphocyte cells were subjected to double immunofluorescence staining, using a mouse monoclonal anti-67 kDa LR antibody (100 μl of 1:20 dilution per 1×10^6 cells/tube; 30 minutes on ice), or normal mouse sera for control. The cells were then stained with an FITC-conjugated goat anti-mouse IgG (100 μl of 1:100 dilution), and PE-conjugated mouse anti-human TCR αβ mAb (2 μl of stock). Cells that were stained only with the second and third antibodies served as additional negative controls. Fluorescence profiles were recorded in a FACSORT.
# Normal syngeneic C57BL/6 female recipient mice were then subjected to 300 rad total body irradiation, and several hours later inoculated I.P with 5×10^6 cells/mouse of either untreated or GnRH-treated EL-4 lymphoma cells. In parallel, samples from the treated and GnRH inoculated EL-4 cells were tested by double immunofluorescence (as described above) for the level of their 67 kD LR and TCRαβ. […] Following further dilution in PBS for the kidney (1:3) and liver (1:10), the number of fluorescent cells, as well as the total number of cells in each tube, were counted by flow cytometry (FACSORT).
# [3] = test system: mouse antigen-specific T cells; test: Atlas mouse cDNA expression array of GnRH-II treated T-cells; format: cell-based
# Protocol: Anti-MBP 87-99 T-cell lines were established from lymph nodes of SJI/J mice as described^23 and analyzed for their specificity to MBP 87-99 peptide in a proliferation assay.
# Poly A+RNA was extracted from the mouse anti-MBP 87-99 cell line before and after treatment with 10 nM GnRH-II for 24 hours, using the ATLAS Pure Total RNA Labeling System (Clontech Laboratories, Inc. Palo Alto, Calif.) according to manufacturers recommendations. Following DNase treatment, ^32P-labeled cDNA was prepared from poly A+ RNA preparations that were prepared from either untreated or GnRH-II treated mouse T-cells. Hybridizations to the ATLAS Mouse cDNA Expression Arrays membranes (Catalog No. PT3140-1, Clontech Laboratories), were performed according to the user manual, and the expression pattern was visualized by autoradiography.
# Poly A+ RNA was prepared from both GnRH-II-treated and untreated cells and reverse transcribed to ^32P-labeled cDNA. Using an Atlas cDNA expression array (i.e. a positively charged nylon membrane spotted with 1200 different cDNAs) for identification of effected genes, the reverse transcribed products were characterized by hybridization to the atlas membranes. The differential pattern of expression between untreated cells and GnRH-II-treated cells was visualized by autoradiography (FIGS. 1A and 1B).
Molecule,migration of T-cells towards chemoattractant SDF-1 (normal human T-cells [1]),67 kDa LR and TCR positive (double positive) cell population (normal human T-cells [2]),"surface expression of the 67 kDa LR, in words (normal human T-cells [2])",surface level of 67 kDa LR on TCR αβ+ EL-4 cells (EL-4 T-lymphoma cells),"expression of mRNA encoding non-integrin 67 kDa laminin receptor ([3]; 10 nM, 24 hours, resting mouse antigen-specific T-cells, vs untreated cells)","transcription of other genes including house-keeping gene nucleoside diphosphate kinase B ([3]; 10 nM, 24 hours, vs untreated cells)","synthesis of CD4 antigen, Cyclin D2 and thymus cell antigen 1 genes (changed by antigenic stimulation) ([3]; GnRH-II alone 10 nM, data not shown)"
pGlu-His-Trp-Ser-Tyr-Gly-Leu-Arg-Pro-Gly-NH2 [GnRH-I],directly increase the migration potential; also recorded: significantly augments,72.4%,significantly increased,increases,,,
"GnRH-II: unique ten amino acid long neuropeptide, 70% homologous in peptide structure to GnRH-I, encoded by its own gene (peptide) peptide: QHWSHGWYPGGKRALSSAQDPQNALRPPGRALDTAAGSPVQTAHGLPSDALAPLDDSMPWEGRTTAQWSLHRKRHLARTLLTAAREPRPAPPSSNKV",directly increase the migration potential; also recorded: significantly augments,74.3%,significantly increased,increases,induced the over expression,not affected,did not affect
